The text below walks through data of the supplement of paper PMC12764529.

± gives the half width of the 95% confidence interval.

The nature of data set [1]: folding stability dG unfold from trypsin proteolysis; higher = more stable. Summed up:
(§1)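 Digests were run with trypsin and chymotrypsin at 11 concentrations in threefold dilutions, plus a no-protease condition, on designed mini-proteins in a PA-tagged cDNA display construct. The mini-proteins were under 80 residues, had no cysteine, and were kept only when AlphaFold2 dimer inter-PAE was above 15. After sequencing, Bayesian fitting of the counts gave K50, from which unfolding free energy was derived against a sequence-predicted unfolded-state K50 and a shared folded-state K50, per protease or combined.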

Data set [2] in a line: folding stability dG unfold (combined trypsin and chymotrypsin); higher = more stable. Summed up:
as §1

The nature of data set [3]: folding stability dG unfold from chymotrypsin proteolysis; higher = more stable. Summed up:
as §1

For the sequence “SAGGSAGGSAGGKAKIEMESETIPFKNDDGEKYYIQIMRFEVEVGGKKVTATAISIMPLDSAGGSAGGSAGG [r7_248_TrROS]”, the “folding stability dG unfold” value came out at 2.22 ± 0.22 kcal/mol in data set [1], 2.98 ± 0.4 kcal/mol in data set [2] and 3.53 ± 0.16 kcal/mol in data set [3].

Turning to “SAGGSAGGSAGGKEPKKVKVYLFNENGELIGVFELEVETLEELEEAVRKLGFLAVVEPESAGGSAGGSAGGS [r10_958_TrMRF]”, the “folding stability dG unfold” value in data set [1] was 4.14 ± 0.096 kcal/mol; in data set [2] it was 4.4 ± 0.077 kcal/mol; in data set [3], 4.43 ± 0.069 kcal/mol.

As for “SAGGSAGGSAGGKEYEVIEVEVNMTIEELKKLFPNVVEIKVEKNENGELKVTIIIKKDKSAGGSAGGSAGGS [r10_764_TrROS_Hall]”, the “folding stability dG unfold” value in data set [1] came to 1.92 ± 0.08 kcal/mol; in data set [2], 2.31 ± 0.12 kcal/mol; in data set [3] it was 2.5 ± 0.11 kcal/mol.

Consider “SAGGSAGGSAGGKEYKVVEFEVLLEDPEPVKAVALIDPDGPVRVFLGDKVYTFKRDELGSAGGSAGGSAGGS [r10_649_TrMRF]”, for which the entries for the “folding stability dG unfold” value in data set [1], in data set [2] and in data set [3] were -0.081 ± 0.071 kcal/mol, 0.766 ± 0.073 kcal/mol and 1.13 ± 0.13 kcal/mol, respectively.

As to “SAGGSAGGSAGGKFEIVEVKEEYTLPNGKKVKVFTVKNKDTGKEITFIVDSNGNLKPYPSAGGSAGGSAGGS [r10_1123_TrROS_Hall]”, the “folding stability dG unfold” value in data set [1] turned out to be 2.72 ± 0.13 kcal/mol; in data set [2], 2.65 ± 0.11 kcal/mol; in data set [3] it was 2.602 ± 0.025 kcal/mol.

“SAGGSAGGSAGGKFKIVKVEKVKNENGEEYVRVYLYNKDGKPVKEFTMSKEELEKLLKELSAGGSAGGSAGG [r7_891_TrROS_Hall]”: the “folding stability dG unfold” value in data set [1] stood at 2.72 ± 0.11 kcal/mol; in data set [2], 2.88 ± 0.15 kcal/mol; in data set [3] it was 2.96 ± 0.051 kcal/mol.

Regarding “SAGGSAGGSAGGKFKPGQTIKIKLKVKVKVNGKEYEFEKELEIKIKPKVTMSEEELKKKSAGGSAGGSAGGS [r10_175_TrROS_Hall]”, the “folding stability dG unfold” value in data set [1] worked out at 0.169 ± 0.16 kcal/mol; in data set [2], 1.39 ± 0.26 kcal/mol; in data set [3], 2.12 ± 0.09 kcal/mol.

Regarding “SAGGSAGGSAGGKGKKVTIEIHFFFKSPQEMKHWANTLAKELPGLDVEIKVEWIPLEDMKSAGGSAGGSAGG [r7_465_TrROS]”, the “folding stability dG unfold” value in data set [1] was 2.06 ± 0.14 kcal/mol; in data set [2], 2.75 ± 0.29 kcal/mol; in data set [3], 3.26 ± 0.14 kcal/mol.

In the case of “SAGGSAGGSAGGKIIEVKEENGEVYLLVEVDGKKEVIKFPKGAKLEEIKVDVKEVKVLKPSAGGSAGGSAGG [r7_373_TrROS_Hall]”, the “folding stability dG unfold” value in data set [1] is -0.0364 ± 0.065 kcal/mol; in data set [2] it was 0.539 ± 0.12 kcal/mol; in data set [3] it was 0.563 ± 0.1 kcal/mol.

Regarding “SAGGSAGGSAGGKIKVPPGAIILVETESGEWKEIKPGDEIELKNSKVYIFNENGEKIELPSAGGSAGGSAGG [r7_54_TrROS_Hall]”, the “folding stability dG unfold” value in data set [1] was determined as 0.82 ± 0.11 kcal/mol; in data set [2], 1.28 ± 0.18 kcal/mol; in data set [3], 1.28 ± 0.092 kcal/mol.

“SAGGSAGGSAGGKIVIELPKELEGLTAEELAELLKKEFGEKGLKVTVVEKDGKLYLVIDSAGGSAGGSAGGS [r10_579_TrROS_Hall]”: the results for the “folding stability dG unfold” value in data set [1], in data set [2] and in data set [3] were 3.43 ± 0.25 kcal/mol, 3.5 ± 0.24 kcal/mol and 3.34 ± 0.15 kcal/mol, respectively.

“SAGGSAGGSAGGKIVKIEFDKETKEIKITLPNGKKITISKEDLKNMKIEIKVYPKKKKKKSAGGSAGGSAGG [r7_98_TrROS_Hall]”: the figures for the “folding stability dG unfold” value in data set [1], in data set [2] and in data set [3] were 0.774 ± 0.093 kcal/mol, 1.8 ± 0.35 kcal/mol and 2.45 ± 0.1 kcal/mol, respectively.

In the case of “SAGGSAGGSAGGKKIIIVVPKEEMTEEELKKLIEELPPGEEIEIEIIVVPPPPPPPKEKKSAGGSAGGSAGG [r7_979_TrROS_Hall]”, the entries for the “folding stability dG unfold” value in data set [1], in data set [2] and in data set [3] were 0.385 ± 0.077 kcal/mol, 1.45 ± 0.27 kcal/mol and 1.92 ± 0.23 kcal/mol, respectively.

Consider “SAGGSAGGSAGGKKITIKNENGETFTVTEIVKYDEETKEFYIKVEVNGKTYLFKVNLEDLSAGGSAGGSAGG [r7_236_TrROS_Hall]”, for which the “folding stability dG unfold” value in data set [1] was found to be 1.81 ± 0.059 kcal/mol; in data set [2], 3.2 ± 0.05 kcal/mol; in data set [3], 3.572 ± 0.024 kcal/mol.

Regarding “SAGGSAGGSAGGKKKIKVKVTVYNKNGKPVAEFEFEFETEEEALEAAKKLGLPVRVEKESAGGSAGGSAGGS [r10_958_TrROS_Hall]”, the “folding stability dG unfold” value in data set [1] was 1.71 ± 0.11 kcal/mol; in data set [2], 2.28 ± 0.15 kcal/mol; in data set [3] it was 2.57 ± 0.069 kcal/mol.

Regarding “SAGGSAGGSAGGKKPKPIKVKVLKYYKNGKIEEKEYTFESPEDLEEFIKANPEVKVLEISSAGGSAGGSAGG [r11_802_TrMRF]”, the “folding stability dG unfold” value in data set [1] worked out at 3.04 ± 0.34 kcal/mol; in data set [2], 4.58 ± 0.17 kcal/mol; in data set [3] it was 4.76 ± 0.082 kcal/mol.

On to “SAGGSAGGSAGGKKTIEIMIFYDPGDPERAKEKARDIANTLQARFPNVTVKITVFRFPNSAGGSAGGSAGGS [r10_223_TrROS]”, for which the figures for the “folding stability dG unfold” value in data set [1], in data set [2] and in data set [3] were 1.87 ± 0.074 kcal/mol, 2.25 ± 0.14 kcal/mol and 2.5 ± 0.048 kcal/mol, respectively.

“SAGGSAGGSAGGKKTLKLPVKITPVKDGLLITLPDGTPILVPKNVTVETTDTTAYVTIGSAGGSAGGSAGGS [r10_305_TrMRF]”: the “folding stability dG unfold” value in data set [1] was 0.21 ± 0.067 kcal/mol; in data set [2], 0.0124 ± 0.2 kcal/mol; in data set [3], -0.375 ± 0.28 kcal/mol.

As for “SAGGSAGGSAGGKKTVKIEIEMPVEELLKKLKFPEGITSVRIIERDENGYLRIEIEVKLSAGGSAGGSAGGS [r10_352_TrROS_Hall]”, the “folding stability dG unfold” value in data set [1] worked out at 1.55 ± 0.05 kcal/mol; in data set [2] it was 1.31 ± 0.23 kcal/mol; in data set [3], 1.32 ± 0.078 kcal/mol.

With “SAGGSAGGSAGGKKVIKVKVRIYPVDGSFEEKEVEAESLEELLEKVLEETHPESLIFIGSAGGSAGGSAGGS [r10_145_TrMRF]”, the “folding stability dG unfold” value in data set [1] came out at 0.912 ± 0.086 kcal/mol; in data set [2] it was 0.59 ± 0.16 kcal/mol; in data set [3], 0.14 ± 0.067 kcal/mol.

Turning to “SAGGSAGGSAGGKKYEITRILSIEETEDGRIRILIETKTGIIEFDDISEIPPEIRELLGSAGGSAGGSAGGS [r10_748_TrMRF]”, the “folding stability dG unfold” value in data set [1] came out at 2.82 ± 0.075 kcal/mol; in data set [2] it was 2.73 ± 0.055 kcal/mol; in data set [3], 2.668 ± 0.021 kcal/mol.

Take “SAGGSAGGSAGGKKYKITVPFKTKDGSGKPITSNFGKKKLEEILKKHPELKPAIEKALKKSAGGSAGGSAGG [r7_637_TrMRF]”: the “folding stability dG unfold” value in data set [1] was -0.163 ± 0.33 kcal/mol; in data set [2], 0.771 ± 0.29 kcal/mol; in data set [3], 1.37 ± 0.22 kcal/mol.

Consider “SAGGSAGGSAGGKKYKPVKKIKVNGKTYTIIKKDGKYIIYDEKTKKKIVIKPGEKIKIKSAGGSAGGSAGGS [r10_559_TrROS_Hall]”, for which the “folding stability dG unfold” value in data set [1] worked out at 0.621 ± 0.045 kcal/mol; in data set [2] it was 1.83 ± 0.34 kcal/mol; in data set [3], 2.21 ± 0.034 kcal/mol.

As to “SAGGSAGGSAGGKLPPGQPIKATIEIYIFMISYDGGEPKIHEFPITIEHTFRLPDPDALSAGGSAGGSAGGS [r10_745_TrROS]”, the “folding stability dG unfold” value in data set [1] turned out to be 2.14 ± 0.086 kcal/mol; in data set [2] it was 3.42 ± 0.17 kcal/mol; in data set [3], 3.9 ± 0.091 kcal/mol.

For “SAGGSAGGSAGGKLTIVIEGMSEEEVKALAEALRKAGLEIEVTVVPVEVKEPELPEEEKSAGGSAGGSAGGS [r10_361_TrROS_Hall]”, the entries for the “folding stability dG unfold” value in data set [1], in data set [2] and in data set [3] were 1.57 ± 0.081 kcal/mol, 2.04 ± 0.12 kcal/mol and 2.29 ± 0.053 kcal/mol, respectively.

With “SAGGSAGGSAGGKPEIKLVEVENEDGSKLIKIEVNGKTIIIENVKTEEELRELLKKLGIESAGGSAGGSAGG [r7_91_TrROS_Hall]”, the results for the “folding stability dG unfold” value in data set [1], in data set [2] and in data set [3] were 2.08 ± 0.14 kcal/mol, 2.64 ± 0.25 kcal/mol and 2.66 ± 0.17 kcal/mol, respectively.

With “SAGGSAGGSAGGKPFKVLSVEPLEIGDKKYLRVRFEDGRVYEFPVSFDFGPDGNNVLPVESAGGSAGGSAGG [r7_931_TrMRF]”, the “folding stability dG unfold” value in data set [1] worked out at 1.93 ± 0.041 kcal/mol; in data set [2], 2.37 ± 0.043 kcal/mol; in data set [3] it was 2.59 ± 0.045 kcal/mol.

“SAGGSAGGSAGGKPITIKLEETGETATIDEDNGIITITNKDGSKYQITFKDGKLIIKKISAGGSAGGSAGGS [r10_568_TrROS_Hall]”: the results for the “folding stability dG unfold” value in data set [1], in data set [2] and in data set [3] were 1.99 ± 0.076 kcal/mol, 2.79 ± 0.097 kcal/mol and 3.1 ± 0.056 kcal/mol, respectively.

Consider “SAGGSAGGSAGGKPKKVVIYIELTPEQEEAIKKGKSLEEVVEELIKEAEKKGLEVEIVGSAGGSAGGSAGGS [r10_890_TrROS_Hall]”, for which the “folding stability dG unfold” value came to 1.2 ± 0.029 kcal/mol in data set [1], 1.62 ± 0.14 kcal/mol in data set [2] and 1.93 ± 0.067 kcal/mol in data set [3].

For the sequence “SAGGSAGGSAGGKPKPIKIEVYYDEKTGKLLVKVTLPNGKPVTLEFDDIGDIDEVKKAAGSAGGSAGGSAGG [r7_41_TrMRF]”, the “folding stability dG unfold” value in data set [1] is 1.36 ± 0.092 kcal/mol; in data set [2] it was 2.44 ± 0.18 kcal/mol; in data set [3] it was 2.97 ± 0.16 kcal/mol.

Take “SAGGSAGGSAGGKPKTIRIKVYNEETGEVVTLEFPEGMSLEEVKKLLEALPNLKVVEIEPSAGGSAGGSAGG [r7_624_TrROS_Hall]”: the “folding stability dG unfold” value in data set [1] was determined as 4.79 ± 0.41 kcal/mol; in data set [2] it was 4.45 ± 0.24 kcal/mol; in data set [3] it was 3.62 ± 0.11 kcal/mol.

For the sequence “SAGGSAGGSAGGKPKVILLEGIKKIEVKDGKVTIEADEPVLLVIDEDGNVHIYRLPKEDLSAGGSAGGSAGG [r7_29_TrROS_Hall]”, the “folding stability dG unfold” value in data set [1] is 1.03 ± 0.07 kcal/mol; in data set [2], 1.35 ± 0.11 kcal/mol; in data set [3], 1.38 ± 0.099 kcal/mol.

For “SAGGSAGGSAGGKPTITITVELEDGYKATFEYNEETDKITVKIFNKNGELVEEFEFEIKSAGGSAGGSAGGS [r10_1044_TrROS_Hall]”, the “folding stability dG unfold” value in data set [1] was 1.81 ± 0.12 kcal/mol; in data set [2], 2.87 ± 0.21 kcal/mol; in data set [3], 3.24 ± 0.21 kcal/mol.

Take “SAGGSAGGSAGGKPYIITLPNMKREVVFENSALVEFEDGSVIAAFENNVIVFFPVPEDALSAGGSAGGSAGG [r7_29_TrMRF]”: the “folding stability dG unfold” value in data set [1] turned out to be 0.121 ± 0.042 kcal/mol; in data set [2], 0.578 ± 0.12 kcal/mol; in data set [3], 0.786 ± 0.093 kcal/mol.

As to “SAGGSAGGSAGGKPYVIVPVTVRFTIDIPKDHPLLKELDINPEDVKIEFEFSFLGEVPASAGGSAGGSAGGS [r10_82_TrMRF]”, the results for the “folding stability dG unfold” value in data set [1], in data set [2] and in data set [3] were 2.66 ± 0.096 kcal/mol, 2.95 ± 0.12 kcal/mol and 2.97 ± 0.089 kcal/mol, respectively.
